The test addresses human CD4 on the surface of cells (HeLa-CD4+, C8166, PM1, primary human CD4+ T lymphocytes) (human) (UniProt P01730). Kind of test: cell-based or functional assay.

Consider “OKT4 (mouse monoclonal antibody that binds CD4, Ortho Diagnostic Systems)”, for which the % inhibition of RET at 0.2 µg/ml, HeLa-env+ + HeLa-CD4+ cells, cuvette method turned out to be 0% and the % inhibition of RET at 2.0 µg/ml, HeLa-env+ + HeLa-CD4+ cells, cuvette method came to 0%.
“HIV-1JR-FL gp120/gp41 expressed on HeLa cells (HeLa-envJR-FL+)” displayed a % RET, fusion of HeLa-envJR-FL+ with PM1 cells, no inhibitor of 7.5 % RET.
“HIV-1LAI gp120/gp41 expressed on HeLa cells (HeLa-envLAI+) (from UniProt P03377 33-861; P03377 33-861)” displayed a % RET, fusion of HeLa-envLAI+ with C8166 cells, no inhibitor of 13 % RET and a % RET, fusion of HeLa-envLAI+ with HeLa-CD4+ cells, no inhibitor of 7.3 % RET.
“murine MAb OKT4a (anti-CD4 monoclonal antibody, Ortho Diagnostic Systems)”: the % Inhibition of RET, fusion of HeLa-envJR-FL with LW5 primary CD4+ T cells, OKT4A at 3 ug/ml was 100%; the % Inhibition of RET, fusion of HeLa-envLAI with LW5 primary CD4+ T cells, OKT4A at 3 ug/ml is 100%; the % RET, fusion of HeLa-envJR-FL+ with PM1 cells in the presence of OKT4A (0.3 µg/ml) was 0.7 % RET; the % RET, fusion of HeLa-envLAI+ with C8166 cells in the presence of OKT4A (0.3 µg/ml) was 0.6 % RET. In addition, the % RET, fusion of HeLa-envLAI+ with HeLa-CD4+ cells in the presence of OKT4A (0.3 µg/ml) was determined as 0.4 % RET and the % inhibition of RET at 0.2 µg/ml, HeLa-env+ + HeLa-CD4+ cells, cuvette method was 65%.

(Values after US7862994.)
